# Test results taken from patent US20260070940A1 (Hoffmann-La Roche, published 2026).
# T1: full-length human CEA with N-terminal SNAP tag on transfected HEK293 cells (human, UniProt P06731 35-685, SNAP tag labelled with terbium)
# T1 construct: whole, on cells; also called hu CEA-SNAP; CEACAM5
# T1 sequence (looked up): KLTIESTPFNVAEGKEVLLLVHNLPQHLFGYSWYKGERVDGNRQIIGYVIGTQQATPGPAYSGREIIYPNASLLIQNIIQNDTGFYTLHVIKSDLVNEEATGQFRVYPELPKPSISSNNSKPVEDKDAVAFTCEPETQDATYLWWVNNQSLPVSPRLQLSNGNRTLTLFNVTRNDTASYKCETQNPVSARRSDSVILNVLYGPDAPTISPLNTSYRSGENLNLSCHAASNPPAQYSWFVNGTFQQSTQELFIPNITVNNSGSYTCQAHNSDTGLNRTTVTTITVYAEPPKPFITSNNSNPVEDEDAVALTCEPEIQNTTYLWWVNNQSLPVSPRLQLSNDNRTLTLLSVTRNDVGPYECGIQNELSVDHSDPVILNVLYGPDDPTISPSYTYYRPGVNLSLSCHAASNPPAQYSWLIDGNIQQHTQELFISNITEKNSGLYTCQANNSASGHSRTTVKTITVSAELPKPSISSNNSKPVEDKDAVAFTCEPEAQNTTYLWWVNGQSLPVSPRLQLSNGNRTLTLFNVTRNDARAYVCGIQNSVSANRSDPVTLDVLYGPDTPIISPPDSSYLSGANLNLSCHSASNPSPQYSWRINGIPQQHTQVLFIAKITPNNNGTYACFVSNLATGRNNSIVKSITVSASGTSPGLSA
# Molecular target: T2, human FAP avi his, biotinylated (human, UniProt Q12884 27-759, biotin on the avi-tag)
# T2 construct: also called huFAP
# Assay: SPR, bacterial supernatant;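 as to result: SPR at 25 °C with biotinylated human or murine FAP captured via neutravidin, aVH-containing bacterial supernatants diluted 1:3 as analyte, 600 s dissociation, blank supernatant without aVH as reference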
row,koff,Binder
1,0.000215 s⁻¹,anti-FAP aVH P034.066 (VHH) VHH: EVQLVESGGGLVQPGGSLRLSCAASGFNIKDTCIGWVRRAPGKEEELVANICGITGYTRYADSVKGRFTISADTSKNTAYLQMNSLRAEDTAVYYCAKSGGPKGYTYWGQGTTVTVSS

# Molecular target: T3, murine FAP avi his, biotinylated (murine, UniProt P97321 27-761, biotin on the avi-tag)
# T3 construct: also called muFAP; mu FAP
# Assay: SPR, bacterial supernatant;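 as to result: SPR at 25 °C with biotinylated human or murine FAP captured via neutravidin, aVH-containing bacterial supernatants diluted 1:3 as analyte, 600 s dissociation, blank supernatant without aVH as reference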
binding result,koff,Binder
no binding,–,anti-FAP aVH P014.087 (VHH) VHH: EVQLVESGGGLVQPGGSLRLSCAASGFNIKDTCIGWVRRAPGKEEELVANICGHIGSTRYADSVKGRFTISADTSKNTAYLQMNSLRAEDTAVYYCANSYTYSYKYWGQGTTVTVSS
no binding,–,anti-FAP aVH P012.090 (VHH) VHH: EVQLVESGGGLVQPGGSLRLSCAASSFNIKDTYIGWVRRAPGKEEELVAKIFRCSDGRTRYADSVKGRFTISCDTSKNTAYLQMNSLRAEDTAVYYCANIYKTHYTYWGQGTTVTVSS
–,0.00253 s⁻¹,anti-FAP aVH P034.066 (VHH) VHH: EVQLVESGGGLVQPGGSLRLSCAASGFNIKDTCIGWVRRAPGKEEELVANICGITGYTRYADSVKGRFTISADTSKNTAYLQMNSLRAEDTAVYYCAKSGGPKGYTYWGQGTTVTVSS
no binding,–,anti-FAP aVH P011.064 (VHH) VHH: EVQLVESGGGLVQPGGSLRLSCAASGFNIKDTCIGWVRRAPGKEEELVANICITDGKTRYADSVKGRFTISADTSKNTAYLQMNSLRAEDTAVYYCAYYSKYIGYRYWGQGTTVTVSS
no binding,–,anti-FAP aVH P011.080 (VHH) VHH: EVQLVESGGGLVQPGGSLRLSCAASGFNIKDTCIGWVRRAPGKEEELVANICQSGGYTRYADSVKGRFTISADTSKNTAYLQMNSLRAEDTAVYYCARYHKGVGYQYWGQGTTVTVSS

# Molecular target: T4, hu CD28-Fc (Fc-knob-avi and Fc-hole chains), biotinylated (human, biotin on the avi tag)
# T4 construct: also called CD28-Fc-avi
# Assay: SPR, bacterial supernatant;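 as to result: SPR at 25 °C with biotinylated human or murine FAP captured via neutravidin, aVH-containing bacterial supernatants diluted 1:3 as analyte, 600 s dissociation, blank supernatant without aVH as reference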
row,Binder,koff
1,anti-CD28 aVH P023.017 (VHH) VHH: EVQLVESGGGLVQPGGSLRLSCAASGFNIKDTCIGWVRRAPGKEEELVARICGEYGSTRYADSVKGRFTISADTSKNTAYLQMNSLRAEDTAVYYCAAQPRYYDVYDYWGQGTTVTVSS,0.0175 s⁻¹
2,anti-CD28 aVH P023.001 (VHH) VHH: EVQLVESGGGLVQPGGSLRLSCAASGFNIKDTCIGWVRRAPGKEEELVAYICPSHGYTRYADSVKGRFTISADTSKNTAYLQMNSLRAEDTAVYYCADHKNTQWGYAYWGQGTTVTVSS,0.0321 s⁻¹
3,anti-CD28 aVH P020.057 (VHH) VHH: EVQLVESGGGLVQPGGSLRLSCAASGFNIKDTCIGWVRRAPGKEEELVAAICYTQGDTRYADSVKGRFTISADTSKNTAYLQMNSLRAEDTAVYYCAASQYDSYYTYWGQGTTVTVSS,0.0174 s⁻¹
4,anti-CD28 aVH P020.065 (VHH) VHH: EVQLVESGGGLVQPGGSLRLSCAASGFNIKDTCIGWVRRAPGKEEELVAGICYTYGDTRYADSVKGRFTISADTSKNTAYLQMNSLRAEDTAVYYCASSEVDSYYSYWGQGTTVTVSS,0.00885 s⁻¹
5,anti-CD28 aVH P020.029 (VHH) VHH: EVQLVESGGGLVQPGGSLRLSCAASGFNIKDTCIGWVRRAPGKEEELVAGICEAGGDTRYADSVKGRFTISADTSKNTAYLQMNSLRAEDTAVYYCAESQQGSYYSYWGQGTTVTVSS,0.00151 s⁻¹
6,anti-CD28 aVH P020.063 (VHH) VHH: EVQLVESGGGLVQPGGSLRLSCAASGFNIKDTCIGWVRRAPGKEEELVAAICPEYGDTRYADSVKGRFTISADTSKNTAYLQMNSLRAEDTAVYYCASSDYDSAYSYWGQGTTVTVSS,0.018 s⁻¹
7,anti-CD28 aVH P020.027 (VHH) VHH: EVQLVESGGGLVQPGGSLRLSCAASGFNIKDTCIGWVRRAPGKEEELVAGICRDGGDTRYADSVKGRFTISADTSKNTAYLQMNSLRAEDTAVYYCAASDYDSYYAYWGQGTTVTVSS,0.00145 s⁻¹
8,anti-CD28 aVH P020.037 (VHH) VHH: EVQLVESGGGLVQPGGSLRLSCAASGFNIKDTCIGWVRRAPGKEEELVAAICDSGGDTRYADSVKGRFTISADTSKNTAYLQMNSLRAEDTAVYYCAASDYNSHYSYWGQGTTVTVSS,0.0131 s⁻¹
9,anti-CD28 aVH P020.017 (VHH) VHH: EVQLVESGGGLVQPGGSLRLSCAASGFNIKDTCIGWVRRAPGKEEELVAAICPDEGDTRYADSVKGRFTISADTSKNTAYLQMNSLRAEDTAVYYCAAAKYDDRYNYWGQGTTVTVSS,0.0109 s⁻¹
10,anti-CD28 aVH P020.051 (VHH) VHH: EVQLVESGGGLVQPGGSLRLSCAASGFNIKDTCIGWVRRAPGKEEELVAAICKTQGDTRYADSVKGRFTISADTSKNTAYLQMNSLRAEDTAVYYCAAANYDSPYTYWGQGTTVTVSS,0.0135 s⁻¹
11,anti-CD28 aVH P020.023 (VHH) VHH: EVQLVESGGGLVQPGGSLRLSCAASGFNIKDTCIGWARRAPGKEEELVAAICDYNGHTRYADSVKGRFTISADTSKNTAYLQMNSLRAEDTAVYYCAQSDYDSKYSYWGQGTTVTVSS,0.0033 s⁻¹
12,anti-CD28 aVH P020.042 (VHH) VHH: EVQLVESGGGLVQPGGSLRLSCAASGFNIKDTCIGWVRRAPGKEEELVAAICREAGDTRYADSVKGRFTISADTSKNTAYLQMNSLRAEDTAVYYCAAADYDSTYIYWGQGTTVTVSS,0.0144 s⁻¹
13,anti-CD28 aVH P020.034 (VHH) VHH: EVQLVESGGGLVQPGGSLRLSCAASGFNIKDTCIGWVRRAPGKEEELVAAICHHGGDTRYADSVKGRFTISADTSKNTAYLQMNSLRAEDTAVYYCAESQVDSYYSYWGQGTTVTVSS,0.00216 s⁻¹
14,anti-CD28 aVH P020.035 (VHH) VHH: EVQLVESGGGLVQPGGSLRLSCAASGFNIKDTCIGWVRRAPGKEEELVADICGDDGHTRYADSVKGRFTISADTSKNTAYLQMNSLRAEDTAVYYCAYYSGSYYEYWGQGTTVTVSS,0.00134 s⁻¹
15,anti-CD28 aVH P020.010 (VHH) VHH: EVQLVESGGGLVQPGGSLRLSCAASGFNIKDTCIGWVRRAPGKEEELVAYICEGNGYTRYADSVKGRFTISADTSKNTAYLQMNSLRAEDTAVYYCAAEGKETYYYQYWGQGTTVTVSS,0.00068 s⁻¹
16,anti-CD28 aVH P019.020 (VHH) VHH: EVQLVESGGGLVQPGGSLRLSCAASGFNIKDSSTYIGWVRRAPGKEEELVAYIYCTQGETRYADSVKGRFTISCDTSKNTAYLQMNSLRAEDTAVYYCASWGGNYPYYYWGQGTTVTVSS,0.0206 s⁻¹

# Continued, values first:
row,koff,Binder
1,0.0777 s⁻¹,anti-CD28 aVH P023.057 (VHH) VHH: EVQLVESGGGLVQPGGSLRLSCAASGFNIKDTCIGWVRRAPGKEEELVAEICGRYGSTRYADSVKGRFTISADTSKNTAYLQMNSLRAEDTAVYYCAAEHRYPGQYTYWGQGTTVTVSS
2,0.0176 s⁻¹,anti-CD28 aVH P023.039 (VHH) VHH: EVQLVESGGGLVQPGGSLRLSCAASGFNIKDTCIGWVRRAPGKEEELVADICIKHGYTRYADSVKGRFTISADTSKNTAYLQMNSLRAEDTAVYYCADWTQSGYHYGYWGQGTTVTVSS
3,0.0117 s⁻¹,anti-CD28 aVH P020.077 (VHH) VHH: EVQLVESGGGLVQPGGSLRLSCAASGFNIKDTCIGWVRRAPGKEEELVAGICQHYGDTRYADSVKGRFTISADTSKNTAYLQMNSLRAEDTAVYYCATDDWIYPGYIYWGQGTTVTVSS

# Molecular target: T1, full-length human CEA with N-terminal …
# Assay: FRET (TagLite) on hu CEA-SNAP cells
row,Kd,Binder
1,14.7 nM,anti-CEA aVH P118.061 (VHH) VHH: EVQLVESGGGLVQPGGSLRLSCAASGFNIKDTCIGWVRRAPGKEEELVANICPYHGYTRYADSVKGRFTISADTSKNTAYLQMNSLRAEDTAVYYCAIVSYVDEYYNYWGQGTTVTVSS
2,65.4 nM,anti-CEA aVH P124.034 (VHH) VHH: EVQLVESGGGLVQPGGSLRLSCAASGFNIKDTCIGWVRRAPGKEEELVAAICPYIGETRYADSVKGRFTISADTSKNTAYLQMNSLRAEDTAVYYCATVARKYNQYNYWGQGTTVTVSS
3,399 nM,anti-CEA aVH P127.002 (VHH) VHH: EVQLVESGGGLVQPGGSLRLSCAASGFNIKDTCIGWVRRAPGKEEELVASICKYTGKTRYADSVKGRFTISADTSKNTAYLQMNSLRAEDTAVYYCAIVASGDGWYNYWGQGTTVTVSS
4,12.3 nM,anti-CEA aVH P124.021 (VHH) VHH: EVQLVESGGGLVQPGGSLRLSCAASGFNIKDTCIGWVRRAPGKEEELVAAICPYKGYTRYADSVKGRFTISADTSKNTAYLQMNSLRAEDTAVYYCANVAYSGGHYNYWGQGTTVTVSS
5,9.1 nM,anti-CEA aVH P127.014 (VHH) VHH: EVQLVESGGGLVQPGGSLRLSCAASGFNIKDTCIGWVRRAPGKEEELVAAICTYKGTTRYADSVKGRFTISADTSKNTAYLQMNSLRAEDTAVYYCAIYSHYYDYYNYWGQGTTVTVSS
